± gives the standard deviation of the averaged measurements.
System: Saccharomyces cerevisiae
Test: protein stability index of tFT-peptide fusion (C-terminal peptide) (PSI (0-1 scale)); higher = more stable (slower turnover)
Conditions: genetic background: wild type; temperature: 30 C
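Further: PSI is a weighted mean of sequencing reads over stability bins, variants kept only with over 10 reads, mCherry proximal and sfGFP distal, peptide attached via GGGS linker.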

Sequence	protein stability index
SCSLGIRSFFSL	0.7 ± 0.021
GWGCGGGGAWSG	0.767 ± 0.018
VCFVGGGGSCRD	0.635 ± 0.068
VGWRVAVGWGLG	0.691 ± 0.083
PGWGPLVARRFV	0.735 ± 0.025
RPGNGLTLPTAS	0.622 ± 0.072
PLDTPYMAYNSD	0.71 ± 0.033
LLAYFCRRGVRH	0.7232 ± 0.0071
LPRASPKARTLR	0.714 ± 0.075
PFSVQLPDVDCL	0.715 ± 0.16
TILPDYTSRILA	0.62 ± 0.012
KLKIMEDQGKKK	0.706 ± 0.12
GLDSGVAGRRGV	0.662 ± 0.0087
SNQKLLGQDIDN	0.659 ± 0.024
PYPCPPRPSPPP	0.76 ± 0.034
LGGWAGLRCGGF	0.704 ± 0.026
RHNKVSPNARYN	0.661 ± 0.027
SGGGCVYRGGRG	0.633 ± 0.015
SMVRYNDFPRPL	0.689 ± 0.081
SSSVPFRRYTHD	0.711 ± 0.017
SWLASASGSHLI	0.74 ± 0.015
GGCVTRYSSQRA	0.656 ± 0.041
SGAIDRSAYIDG	0.622 ± 0.028
SWGCSMAKVWVR	0.585 ± 0.038
VFCVFACLCIVF	0.522 ± 0.091
LLSRLLLAPSSL	0.65 ± 0.019

Sequence	protein stability index
IPLCRVAGPKLK	0.591 ± 0.048
VVSGSHSVLYGS	0.71 ± 0.028
SRFAGVGGGGAR	0.667 ± 0.0071
VAGGGVAMVGSA	0.619 ± 0.069
VHVLLSGVICAL	0.471 ± 0.061
GVGAPRLPPRPG	0.696 ± 0.012
ALSTALVIPLLY	0.58818 ± 0.00035
GRLWVGGSVGGV	0.669 ± 0.012
RLEFSFHPFFLS	0.658 ± 0.02
VGLFMGSPFMET	0.693 ± 0.0087
LGLCQVLFSFRV	0.56816 ± 0.00044
VSLVYLDHLSRS	0.702 ± 0.029
RYKISKKERIKK	0.663 ± 0.072
ASCQRCGSVLDL	0.697 ± 0.014
SEIFTNALLISI	0.651 ± 0.026
PCIRRRSISTLP	0.775 ± 0.11
PPRPFTLLPPPP	0.6424 ± 0.0062
GGGLSGEGGLGR	0.639 ± 0.014
RRSTRAGWPGNW	0.5 ± 0.1
SLMCFDLSTFLG	0.634 ± 0.08
VGKRGQRRVARL	0.692 ± 0.021
PRPLLPPPPLLA	0.629 ± 0.083
SPPPRHLLSPRH	0.697 ± 0.0077
GVIYFSLSSFPL	0.655 ± 0.14
TEGMISSHRVIH	0.727 ± 0.058
AETPRGDTRLHE	0.699 ± 0.021

Sequence	protein stability index
VRSCFPVGMVWR	0.72087 ± 0.00045
PPTPSLPRPPMQ	0.676 ± 0.014
WGRGAVGPLLGV	0.632 ± 0.016
PRSYPPSPPPPS	0.704 ± 0.042
TSLGSFLCGMCR	0.6506 ± 0.0046
NLAVSFIVGGLW	0.747 ± 0.026
FGTVIEVVCGVM	0.5277 ± 0.0014
VCLGRSEETLSS	0.608 ± 0.15
KKSKKKSKNIRK	0.694 ± 0.028
QKKTNKKTTRNE	0.691 ± 0.013
RVRVGGPRESGQ	0.7054 ± 0.00082
SPPCRTYFAECD	0.713 ± 0.053
APPPPAPPPLRP	0.724 ± 0.05
SCGYRGSSAFSF	0.62 ± 0.2
GGGVGASMSGTP	0.689 ± 0.0069
LSISPSPPPPLW	0.706 ± 0.052
VRRILLGPPGRD	0.653 ± 0.085
GDFSLCPMFCAP	0.677 ± 0.071
GVGGEIGRGGEY	0.676 ± 0.035
SSSLPPPPHAFP	0.672 ± 0.036
PPSPPAPPAPPH	0.692 ± 0.038
GCRGEWGWVGRG	0.691 ± 0.017
GSFGFGVTVVFW	0.5563 ± 0.0021
FTQVIQQQRRVV	0.627 ± 0.067
PPTANPMLPPPF	0.651 ± 0.055
RFQWAFMSWSEP	0.823 ± 0.064

Sequence	protein stability index
GGRGREGRPPGP	0.641 ± 0.034
QTNYSNQYKEKY	0.713 ± 0.11
LSVWPHSVPSFV	0.659 ± 0.036
RLFLGSIGTLTS	0.673 ± 0.046
LSLGGSPSKRRP	0.648 ± 0.029
PPPPLPPFPPHP	0.659 ± 0.017
SPPSPPALTPSP	0.643 ± 0.048
GSIWVVGGGQGV	0.731 ± 0.048
SNNWLEKTGAMT	0.659 ± 0.03
EKTTDIKENERR	0.692 ± 0.029
ERKKPKKKRMRY	0.706 ± 0.011
PHAAERRKPCAP	0.768 ± 0.011
SYWARCVHTTIA	0.669 ± 0.02
PSLPVPPTLCPI	0.675 ± 0.062
GGGRALEGAAGP	0.583 ± 0.063
TNGPSVWYFLVL	0.575 ± 0.052
PSLPPPPPTPPT	0.688 ± 0.047
RFVAFDFLGISL	0.736 ± 0.2
RNTRVSLPPRGQ	0.63 ± 0.041
EEPVVSNPPLLA	0.688 ± 0.033
ANKNNIQRTISL	0.756 ± 0.038
LEVFSGNQSVLH	0.645 ± 0.094
LNLLCGFRQVGG	0.701 ± 0.013
PPAPPHALPPGP	0.671 ± 0.033
RHARAARDSPRR	0.705 ± 0.081
SPTRNLPPFPPP	0.723 ± 0.054

Sequence	protein stability index
GRWGVMKGEEDV	0.737 ± 0.032
SPPPHPPLRFLP	0.667 ± 0.049
NKPRSYRVDKRQ	0.615 ± 0.015
AWGGGSVVFWAV	0.692 ± 0.055
PFCYALPWAPPR	0.644 ± 0.076
VCIGGGGVVLGL	0.645 ± 0.04
GEKQVDGGDGQR	0.6985 ± 0.0012
LRHLPHPTCSLL	0.7 ± 0.06
WVGPGGAVENKV	0.7013 ± 0.0032
PPPTHQLAVLSP	0.6413 ± 0.0062
GPLPYISLSFSP	0.7304 ± 0.0028
NVLVSPFVPLSF	0.724 ± 0.0089
QQKYKLIQLVII	0.584 ± 0.017
TPPATFCVPPPH	0.719 ± 0.053
LPASPPLSGLIF	0.823 ± 0.14
PNSPRCAIASPL	0.702 ± 0.046
PRFKPSRSTPAD	0.675 ± 0.031
FKTLIRKEQESE	0.754 ± 0.013
PRGLFLTRLRPC	0.64 ± 0.058
QYDHGSSPRRFE	0.7005 ± 0.0041
ALSPSLWCYFPT	0.71 ± 0.029
TSDVGWVPAGSE	0.656 ± 0.043
AKRFQTTWAGRM	0.61 ± 0.037
PRDRLIRNHVTR	0.716 ± 0.086
LPAARQSVLPPA	0.732 ± 0.0085
VRDTTRTEKLGP	0.687 ± 0.002

Sequence	protein stability index
KTKKKYENRKKK	0.684 ± 0.0094
LPRPPPFSPPPP	0.651 ± 0.11
EKHNNNRYKQYL	0.7255 ± 0.0052
RPTRPCSTPTAP	0.78 ± 0.012
INGSTENKSVKT	0.644 ± 0.012
SRGTTLDREQQR	0.687 ± 0.1
DLPRLGLPRRAC	0.63 ± 0.047
GGSSWSLGGGGG	0.7406 ± 0.0023
GPVYPGSRPAFT	0.708 ± 0.092
ADGGVVLKVMEG	0.636 ± 0.077
AVDPGASFPVSV	0.698 ± 0.0086
PAPPPPPPPLYP	0.718 ± 0.013
GSVSLLASLMCS	0.55596 ± 0.00023
GWVVSGIFGRCC	0.689 ± 0.013
AFGCGGVPGDFA	0.63 ± 0.015
GGCGGVWGACVV	0.709 ± 0.023
LRSLSLSYVALR	0.6592 ± 0.0017
PPPLPSIPPFVL	0.708 ± 0.094
FILWSLIMGPYA	0.522 ± 0.019
RKLKNKTKREII	0.653 ± 0.0068
PPPLPSPAPPPP	0.709 ± 0.053
KNMKTEDLLIVN	0.727 ± 0.022
RIGICSTNTSLQ	0.722 ± 0.067
HNPRTCRAPLSL	0.671 ± 0.0079
ARPPPPPPSVDP	0.719 ± 0.011
PLSPSAAPSAPS	0.737 ± 0.1

Sequence	protein stability index
GGTSCLLSTAGD	0.653 ± 0.079
ESEKKHNKKRRV	0.654 ± 0.069
VLGRLRGGRDRV	0.723 ± 0.023
SPCRAGRPAGLR	0.729 ± 0.071
CPPGFPRPSSPH	0.689 ± 0.028
SLWTDALFLCLT	0.727 ± 0.19
RRRGSLGGVRGN	0.707 ± 0.058
YLVHEIGDMTYM	0.739 ± 0.079
PLQPRVLPSPRR	0.688 ± 0.0011
LYSPPPPPIPSP	0.7046 ± 0.0067
YVTITLGLASPT	0.666 ± 0.026
LLPLAPVCVIIL	0.54 ± 0.041
VLTPLWIANTFL	0.673 ± 0.057
PDDGLSAPPAAF	0.722 ± 0.14
VTWNTLENMNLV	0.673 ± 0.032
LPRSRLAPPPCS	0.73 ± 0.015
RGPPCPFPVPLP	0.74 ± 0.033
CGISTRYHNRES	0.696 ± 0.023
HLPPPPRITVVP	0.716 ± 0.073
CKVRSYDDFVLV	0.6231 ± 0.002
SLAAPFPSLPNF	0.652 ± 0.036
PPPPPPPPTPAS	0.654 ± 0.023
RRLNTRQERSNK	0.72 ± 0.032
SPEPSFPPLLLP	0.715 ± 0.015
PVPPRPHGFPHL	0.678 ± 0.023
RVQELEDGCAAE	0.658 ± 0.024

Sequence	protein stability index
FSLGPSPLRPHA	0.611 ± 0.086
NSTTQKKEQKQI	0.711 ± 0.043
FLSRPIGAAIWA	0.543 ± 0.026
TGFGVQRKECGT	0.629 ± 0.0066
VRTSWRHESIKK	0.618 ± 0.019
AWGFHDAFGLGC	0.605 ± 0.032
LVVTTLQSVVLG	0.559 ± 0.085
PSRRILFSAALL	0.764 ± 0.28
VIAEHCSKQGLI	0.639 ± 0.018
QTNAEPPSERVT	0.655 ± 0.083
AQPDAFAGVWGV	0.7177 ± 0.0028
PLLRPTRLLPET	0.699 ± 0.093
KQKQNKIKITTQ	0.656 ± 0.0077
RETSRNCGKVST	0.745 ± 0.043
LRALLSHPRRCA	0.625 ± 0.034
LGVAMSKCLEFR	0.684 ± 0.0083
PETIIENIMKRR	0.688 ± 0.22
PSWVFRCAPSPF	0.505 ± 0.084
SMVGCVKTPIEQ	0.659 ± 0.023
GTEFIIDIQIFV	0.547 ± 0.02

Reference: the supplement of paper PMC10724198
